# Assay results published in patent publication US20170088610A1 (RINAT NEUROSCIENCE, published 2017).
# Substitutions are numbered along the chain they refer to.
# B1: heavy chain library clone H227 (Fab, V domains shown)
# VH: QVQLQESGPGLVKPSETLSLTCTVSGFSLIGYDISWIRQPPGKGLEWIGQIWGDGTTDYNSSVKSRVTISKDTSKNQFSLKLSSVTAADTAVYYCARGGYYYGTSYYFDYWGQGTLVTVS
# VL: DIQMTQSPSSLSASVGDRVTITCRASQDISNHLNWYQQKPGKAPKLLIYYISRFHSGVPSRFSGSGSGTDFTFTISSLQPEDIATYYCQQSKTLPYTFGQGTKLEIKR
# notes: See note of m8
# B2: heavy chain library clone H18 (Fab, V domains shown)
# VH: B1 VH with I34A, S35T, Q50G, S62A
# VL: B1 VL
# notes: See note of m8
# B3: light chain library clone L81 (Fab, V domains shown)
# VH: B1 VH with S35N, Q50M, S62A, V63L
# VL: B1 VL with S26F, D28A, H32Q, S56T
# notes: See note of m8
# B4: heavy chain library clone H109 (Fab, V domains shown)
# VH: B1 VH with I34S, S35N, Q50I, S62A, V63L
# VL: B1 VL
# notes: paired with the CDR-grafted light chain; See note of m8
# B5: heavy chain library clone H19 (Fab, V domains shown)
# VH: B1 VH with I34L, S35N, Q50I, S62A
# VL: B1 VL
# notes: See note of m8
# B6: heavy chain library clone H9 (Fab, V domains shown)
# VH: B1 VH with I34V, Q50I
# VL: B1 VL
# notes: See note of m8
# B7: light chain library clone L97 (Fab, V domains shown)
# VH: B1 VH with S35N, Q50M, S62A, V63L
# VL: B1 VL with D28S, H32Q, I51V
# notes: See note of m8
# B8: heavy chain library clone H225 (Fab, V domains shown)
# VH: B1 VH with I34V, S35T, Q50G
# VL: B1 VL
# notes: See note of m8
# B9: light chain library clone L6 (Fab, V domains shown)
# VH: B1 VH with S35N, Q50M, S62A, V63L
# VL: B1 VL with S26F, D28S, H32Q, I51A
# notes: See note of m8
# B10: heavy chain library clone H28 (Fab, V domains shown)
# VH: B1 VH with I34S, S35T, Q50S, S62A, V63L
# VL: B1 VL
# notes: See note of m8
# B11: heavy chain library clone H222 (Fab, V domains shown)
# VH: B1 VH with I34V, S35T, Q50G, S62A
# VL: B1 VL
# notes: See note of m8
# B12: 8L2-6D5 Fab with CDR H3 mutation D109G (Fab, V domains shown)
# VH: B1 VH with S35N, Q50M, S62A, V63L, D109G
# VL: B1 VL
# notes: See note of m8
# B13: 8L2-6D5 Fab with CDR H3 mutation S105T (Fab, V domains shown)
# VH: B1 VH with S35N, Q50M, S62A, V63L, S105T
# VL: B1 VL
# notes: See note of m8
# B14: 8L2-6D5 Fab with CDR H3 mutation Y101W (Fab, V domains shown)
# VH: B1 VH with S35N, Q50M, S62A, V63L, Y101W
# VL: B1 VL
# notes: W101 is the E3 residue, so it is kept; See note of m8
# B15: 8L2-6D5 Fab with CDR H3 mutation F108W (Fab, V domains shown)
# VH: B1 VH with S35N, Q50M, S62A, V63L, F108W
# VL: B1 VL
# notes: See note of m8
# B16: 8L2-6D5 Fab with CDR H3 mutation Y110T (Fab, V domains shown)
# VH: B1 VH with S35N, Q50M, S62A, V63L, Y110T
# VL: B1 VL
# notes: See note of m8
# B17: 8L2-6D5 Fab with CDR H3 mutation G103A (Fab, V domains shown)
# VH: B1 VH with S35N, Q50M, S62A, V63L, G103A
# VL: B1 VL
# notes: A103 is the E3 residue, so it is kept; See note of m8
# B18: 8L2-6D5 Fab with CDR L3 mutation Y96R (Fab, V domains shown)
# VH: B1 VH with S35N, Q50M, S62A, V63L
# VL: B1 VL with Y96R
# notes: See note of m8
# B19: 8L2-6D5 Fab with CDR H3 mutation Y100R (Fab, V domains shown)
# VH: B1 VH with S35N, Q50M, S62A, V63L, Y100R
# VL: B1 VL
# notes: See note of m8
# B20: 8L2-6D5 Fab with CDR H3 mutation Y110R (Fab, V domains shown)
# VH: B1 VH with S35N, Q50M, S62A, V63L, Y110R
# VL: B1 VL
# notes: See note of m8
# B21: 8L2-6D5 Fab with CDR H3 mutation T104S (Fab, V domains shown)
# VH: B1 VH with S35N, Q50M, S62A, V63L, T104S
# VL: B1 VL
# notes: See note of m8; also called T1045 (so in the source)
# B22: 8L2-6D5 Fab with CDR H3 mutation Y106T (Fab, V domains shown)
# VH: B1 VH with S35N, Q50M, S62A, V63L, Y106T
# VL: B1 VL
# notes: See note of m8
# B23: 8L2-6D5 Fab with CDR H3 mutation D109N (Fab, V domains shown)
# VH: B1 VH with S35N, Q50M, S62A, V63L, D109N
# VL: B1 VL
# notes: See note of m8
# B24: 8L2-6D5 Fab with CDR H3 mutation Y106R (Fab, V domains shown)
# VH: B1 VH with S35N, Q50M, S62A, V63L, Y106R
# VL: B1 VL
# notes: See note of m8
# B25: 8L2-6D5 Fab with CDR H3 mutation S105A (Fab, V domains shown)
# VH: B1 VH with S35N, Q50M, S62A, V63L, S105A
# VL: B1 VL
# notes: See note of m8
# B26: 8L2-6D5 Fab with CDR H3 mutation Y100L (Fab, V domains shown)
# VH: B1 VH with S35N, Q50M, S62A, V63L, Y100L
# VL: B1 VL
# notes: See note of m8
# B27: 8L2-6D5 Fab with CDR L3 mutation S91E (Fab, V domains shown)
# VH: B1 VH with S35N, Q50M, S62A, V63L
# VL: B1 VL with S91E
# notes: E91 is the E3 residue, so it is kept; See note of m8
# B28: 8L2-6D5 Fab with CDR H3 mutation Y110S (Fab, V domains shown)
# VH: B1 VH with S35N, Q50M, S62A, V63L, Y110S
# VL: B1 VL
# notes: See note of m8
# B29: 8L2-6D5 Fab with CDR H3 mutation Y107F (Fab, V domains shown)
# VH: B1 VH with S35N, Q50M, S62A, V63L, Y107F
# VL: B1 VL
# notes: See note of m8
# B30: 8L2-6D5 Fab with CDR H3 mutation Y106M (Fab, V domains shown)
# VH: B1 VH with S35N, Q50M, S62A, V63L, Y106M
# VL: B1 VL
# notes: See note of m8
# B31: 8L2-6D5 Fab with CDR H3 mutation Y110K (Fab, V domains shown)
# VH: B1 VH with S35N, Q50M, S62A, V63L, Y110K
# VL: B1 VL
# notes: See note of m8
# Molecular target: T1, human nerve growth factor (human, UniProt P01138 122-241)
# T1 construct: Immobilised on CM5 chips for BIAcore, soluble in neuron survival assays; also called human NGF; hNGF
# T1 sequence (P01138 122-241 limits assumed): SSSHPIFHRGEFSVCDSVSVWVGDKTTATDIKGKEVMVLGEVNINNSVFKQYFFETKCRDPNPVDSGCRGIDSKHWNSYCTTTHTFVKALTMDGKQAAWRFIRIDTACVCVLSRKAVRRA
# Assay: BIAcore SPR screen, Fab over immobilised human NGF
# Description: (§1) A screening BIAcore assay was optimized to determine the affinity of Fab clones from libraries. Supernatants of small culture lysates were injected at […] for 2 min. Dissociation times of 10 to 15 minutes were used for determination of a single exponential dissociation rate (koff) using BIAevaluation software. […] Clones showing improved (slower) koff values were expressed at large scale and full kinetic parameters, kₒₙ and koff, were determined on purified protein.
# (§2) For affinity screening experiments, each library was further paired with the corresponding CDR-grafted light or heavy chain (for example, the H1/H2 library was paired with CDR-grafted light chain), the antibody was expressed, and affinity to human NGF of the individual clones was screened using the BIACORE surface plasmon resonance (SPR) system (BIAcore, Inc. Piscataway, N.J.) according to the manufacturer's instructions and as described above. koff, kₒₙ and KD were determined. Antibody clones were ranked based on koff rates, since generally most variation in affinity is seen in koff rates, and further because koff rates are independent of antibody concentration.
row,koff [s⁻¹],Binder
1,0.00054,B1
2,0.00042,B2
3,0.00074,B3
4,0.00016,B4
5,0.00024,B5
6,0.00041,B6
7,0.00056,B7
8,0.00038,B8
9,0.00082,B9
10,0.00075,B10
11,0.00038,B11

# Molecular target: T1, human nerve growth factor
# Assay: BIAcore SPR screen, Fab over immobilised human NGF; KD calculated from koff with kon 4e4 M-1s-1
# Description: as §1, §2
row,Kd [nM],Binder
1,13.5,B1
2,10.5,B2
3,18,B3
4,4,B4
5,6,B5
6,10.2,B6
7,14,B7
8,9.5,B8
9,20,B9
10,18.7,B10
11,9.5,B11

# Molecular target: T1, human nerve growth factor
# Assay: BIAcore SPR screen, Fab over immobilised human NGF
# Remark: another data set of the same source
# Description: as §1
# (§3) 20-80 clones from each small library were screened using BIAcore analysis as described herein. Samples were simultaneously analyzed by BIAcore for binding affinity to NGF in one channel of the BIAcore chip and for presence of Fab by binding to a penta-histag antibody in another channel of the sensor chip, to detect the his tag at the C terminus of the heavy chain. Clones that expressed protein were classified as having the same affinity, worse affinity, better affinity or no binding, using koff to classify: The results of this analysis are shown in Table 5.
row,koff [s⁻¹],Binder
1,0.001,B12
2,0.00064,B13
3,0.00056,B14
4,0.00122,B15
5,0.0017,B16
6,0.00016,B17
7,0.0017,B18
8,0.0011,B19
9,0.0016,B20
10,0.0022,B21
11,0.002,B22
12,0.0015,B23
13,0.0016,B24
14,0.00051,B25
15,0.0012,B26
16,0.00025,B27
17,0.0015,B28
18,0.0014,B29
19,0.0027,B30
20,0.0014,B31

# Molecular target: T1, human nerve growth factor
# Assay: BIAcore SPR screen, Fab over immobilised human NGF; KD calculated from koff with kon 4e4 M-1s-1
# Remark: another data set of the same source
# Description: as §1, §3
row,Kd [nM],Binder
1,25,B12
2,16,B13
3,14,B14
4,30,B15
5,42,B16
6,4,B17
7,42,B18
8,27,B19
9,40,B20
10,55,B21
11,50,B22
12,37,B23
13,40,B24
14,13,B25
15,30,B26
16,6,B27
17,37,B28
18,35,B29
19,67,B30
20,35,B31
